The chains are these.
B1: phage clone C-11 (KLWVLPK displayed on pIII of M13 phage) (peptide)
peptide: KLWVLPK
notes: Whole phage particle displaying the heptamer; tested as phage (ELISA with anti-M13 antibody, titer counts); also called Phage C-11; not shown: minor coat protein pIII of M13 filamentous phage (Ph.D.-7 library, New England Biolabs)
B2: phage clone A-9 (KIFVWPY displayed on pIII of M13 phage) (peptide)
peptide: KIFVWPY
modifications: not fully specified
notes: Whole phage particle displaying the heptamer; tested as phage, detected with anti-M13 antibody; not shown: minor coat protein pIII of M13 filamentous phage (Ph.D.-7 library, New England Biolabs)
B3: phage clone C-8 (HWGSLRA displayed on pIII of M13 phage) (peptide)
peptide: HWGSLRA
notes: 100% of the round 5 clones; not shown: minor coat protein pIII of M13 filamentous phage (Ph.D.-7 library, New England Biolabs)
B4: phage clone C-10 (KIWKLPQ displayed on pIII of M13 phage) (peptide)
peptide: KIWKLPQ
notes: as for B2
B5: phage clone A-8 (KVWSLPQ displayed on pIII of M13 phage) (peptide)
peptide: KVWSLPQ
notes: as for B2

No end group written: not given here.

T1 sequence (P02769 25-607 limits assumed): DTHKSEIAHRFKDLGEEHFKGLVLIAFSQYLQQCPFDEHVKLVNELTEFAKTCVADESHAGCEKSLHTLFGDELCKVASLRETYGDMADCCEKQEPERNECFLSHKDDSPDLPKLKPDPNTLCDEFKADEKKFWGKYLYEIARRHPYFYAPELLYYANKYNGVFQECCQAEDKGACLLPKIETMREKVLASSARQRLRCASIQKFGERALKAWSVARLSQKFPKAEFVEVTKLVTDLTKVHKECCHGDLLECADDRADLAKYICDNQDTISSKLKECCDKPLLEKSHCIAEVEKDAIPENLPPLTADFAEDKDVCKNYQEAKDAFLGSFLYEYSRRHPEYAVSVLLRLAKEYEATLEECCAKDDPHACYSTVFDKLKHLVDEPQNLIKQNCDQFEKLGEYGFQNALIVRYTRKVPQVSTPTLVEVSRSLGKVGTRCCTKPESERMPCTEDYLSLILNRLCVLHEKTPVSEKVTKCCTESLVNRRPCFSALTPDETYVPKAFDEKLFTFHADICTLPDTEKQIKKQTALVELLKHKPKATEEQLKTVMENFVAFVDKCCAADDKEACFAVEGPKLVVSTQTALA

The first test addresses T1, bovine serum albumin (bovine, UniProt P02769 25-607).
T1 construct: also called BSA
Description: phage ELISA on BSA-coated wells, anti-M13 HRP/ABTS. As to the method: The clones were tested against the random library (R0) for binding to Matrigel (lighter shaded bars) or BSA (black bars). Bound phages were labeled with peroxidase-conjugated anti-M13 monoclonal antibodies (mAbs), and ABTS absorbance at 405 nm was read against a reference wavelength of 490 nm (mean±s.d., n=3). (**) P<0.01; (***) P<0.001, all compared with R0 (one-way analysis of variance with Tukey post-hoc test).
96-well plates were coated with 100 μL 1/50 dilutions of Matrigel in TBS overnight at 4° C., or TBS buffer only. Plates were blocked with 3% BSA/TBS for 2 h at RT and washed three times. 10¹⁰ p.f.u. of each phage clone was added in 0.5% TBST in triplicate to either Matrigel or BSA-coated wells. Bound phage particles were detected with peroxidase-conjugated mouse anti-M13 monoclonal antibodies at 1/5000 dilution (Amersham Pharmacia Biotech, Piscataway, N.J.). After a 1 h incubation, the reaction was developed with 2,2′-azino-bis(3-ethylbenzthiazoline-6-sulphonic acid) (ABTS) (Amersham) and the absorbance was read at 405 nm against a reference wavelength of 490 nm with a SpectraMax Plus 384 Microplate reader (Molecular Devices, Sunnyvale, Calif.).
For B1, the binding result is “no binding (tested: 10^10 p.f.u. of each phage clone)”.

For the molecule B2, the binding result is “no binding (tested: 10^10 p.f.u. of each phage clone)”.

With B3, the binding result was “no binding (tested: 10^10 p.f.u. of each phage clone)”.

As to B4, the binding result was “no binding (tested: 10^10 p.f.u. of each phage clone)”.

As to B5, the binding result was “no binding (tested: 10^10 p.f.u. of each phage clone)”.

The next test deals with T2, Matrigel growth factor reduced LDEV free (basement membrane extract rich in collagen IV and laminin).
T2 construct: A mixture coated on plates, not one protein
Briefly: phage titer count of eluted phage, input 10^12/mL p.f.u., against random library R0, n=3.
For the molecule B1, the “fold binding compared to the library (R0), phage titer” value was ~300 fold.

The values are drawn from patent publication US20110143993A1 (BRIGHAM AND WOMEN S HOSPITAL, published 2011).
